Laboratory results reported in patent US20180002415A1 (Chugai, published 2018).

How the values were obtained:
[1] = biological target: T1, recombinant cynomolgus monkey C5 (cynomolgus monkey, UniProt P01031 20-1676 (human entry), limits assumed); test: SPR (Biacore), 37C, pH 7.4, Ab captured on ProA/G
T1 construct: also called cynoC5
T1 chain: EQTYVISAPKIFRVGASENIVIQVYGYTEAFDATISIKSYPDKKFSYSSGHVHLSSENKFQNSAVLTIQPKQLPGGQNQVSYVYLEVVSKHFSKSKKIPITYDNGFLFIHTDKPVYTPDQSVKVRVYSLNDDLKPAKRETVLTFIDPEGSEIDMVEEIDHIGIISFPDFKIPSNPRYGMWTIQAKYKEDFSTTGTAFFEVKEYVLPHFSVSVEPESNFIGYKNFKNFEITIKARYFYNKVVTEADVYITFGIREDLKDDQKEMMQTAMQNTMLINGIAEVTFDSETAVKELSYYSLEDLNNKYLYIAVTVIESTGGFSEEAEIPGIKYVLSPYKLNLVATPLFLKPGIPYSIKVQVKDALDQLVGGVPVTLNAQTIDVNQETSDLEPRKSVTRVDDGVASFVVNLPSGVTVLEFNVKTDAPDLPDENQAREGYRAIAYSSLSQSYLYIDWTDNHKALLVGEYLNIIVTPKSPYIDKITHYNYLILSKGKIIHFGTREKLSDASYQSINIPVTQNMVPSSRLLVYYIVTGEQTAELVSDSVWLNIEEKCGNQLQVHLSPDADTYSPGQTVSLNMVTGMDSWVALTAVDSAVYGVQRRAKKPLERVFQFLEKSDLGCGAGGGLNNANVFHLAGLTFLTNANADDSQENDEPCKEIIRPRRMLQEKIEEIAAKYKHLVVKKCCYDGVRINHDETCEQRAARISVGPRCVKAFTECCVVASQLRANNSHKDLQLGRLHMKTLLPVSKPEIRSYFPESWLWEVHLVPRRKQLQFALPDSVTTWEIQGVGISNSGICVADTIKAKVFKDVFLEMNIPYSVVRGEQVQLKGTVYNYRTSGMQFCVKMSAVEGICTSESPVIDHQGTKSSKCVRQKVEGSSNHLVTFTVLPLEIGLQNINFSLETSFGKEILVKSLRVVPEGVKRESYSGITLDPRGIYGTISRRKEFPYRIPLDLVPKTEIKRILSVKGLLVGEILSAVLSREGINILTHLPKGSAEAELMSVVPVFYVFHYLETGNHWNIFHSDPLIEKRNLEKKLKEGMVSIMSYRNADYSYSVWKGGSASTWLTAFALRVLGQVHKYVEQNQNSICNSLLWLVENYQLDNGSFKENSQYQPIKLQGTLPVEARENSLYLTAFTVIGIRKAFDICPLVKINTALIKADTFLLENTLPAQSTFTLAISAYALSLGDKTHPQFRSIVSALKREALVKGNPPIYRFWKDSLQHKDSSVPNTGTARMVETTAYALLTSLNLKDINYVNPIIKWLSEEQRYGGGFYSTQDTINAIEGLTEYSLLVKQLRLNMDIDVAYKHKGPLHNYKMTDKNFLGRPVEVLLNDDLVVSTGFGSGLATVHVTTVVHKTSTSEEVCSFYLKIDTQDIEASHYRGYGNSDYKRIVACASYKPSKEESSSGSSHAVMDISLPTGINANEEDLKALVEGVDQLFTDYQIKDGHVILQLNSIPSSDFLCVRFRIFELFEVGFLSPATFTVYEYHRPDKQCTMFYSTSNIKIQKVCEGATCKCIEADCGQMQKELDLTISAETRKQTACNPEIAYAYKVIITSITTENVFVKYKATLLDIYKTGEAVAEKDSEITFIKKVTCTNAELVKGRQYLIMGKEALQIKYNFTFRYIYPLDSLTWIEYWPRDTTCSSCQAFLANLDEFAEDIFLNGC
Procedure: To observe the cross-reactivity of anti-C5 antibodies against human C5 (hC5) and cynomolgus monkey C5 (cynoC5), BIACORE® kinetics analysis was performed.

[2] = biological target: T2, C5 peptide 33-108 fused to GST-tag (human, UniProt P01031 33-108); test: summary drawing of the binding reactions to C5 beta-chain fragments
T2 construct: not shown: GST-tag (glutathione S-transferase); vector and linker not restated
T2 sequence (P01031 33-108): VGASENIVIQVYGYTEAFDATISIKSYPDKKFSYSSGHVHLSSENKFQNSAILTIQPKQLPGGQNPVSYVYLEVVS

[3] = biological target: T3, C5 peptide 45-111 fused to GST-tag (human, UniProt P01031 45-111); test: as above
T3 construct: not shown: GST-tag (glutathione S-transferase); vector and linker not restated
T3 sequence (P01031 45-111): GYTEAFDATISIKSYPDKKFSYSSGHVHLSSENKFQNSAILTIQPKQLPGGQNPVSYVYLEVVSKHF

[4] = biological target: T4, C5 peptide 45-124 fused to GST-tag (human, UniProt P01031 45-124); test: as above
T4 construct: not shown: GST-tag (glutathione S-transferase); vector and linker not restated
T4 sequence (P01031 45-124): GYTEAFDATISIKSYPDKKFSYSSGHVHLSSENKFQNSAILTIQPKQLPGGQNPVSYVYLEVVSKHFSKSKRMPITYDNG

[5] = biological target: T5, C5 peptide 52-124 fused to GST-tag (human, UniProt P01031 52-124); test: as above
T5 construct: not shown: GST-tag (glutathione S-transferase); vector and linker not restated
T5 sequence (P01031 52-124): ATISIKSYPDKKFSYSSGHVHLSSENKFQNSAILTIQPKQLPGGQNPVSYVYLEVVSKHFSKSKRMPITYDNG

[6] = biological target: T6, C5 peptide 33-111 fused to GST-tag (human, UniProt P01031 33-111); test: as above
T6 construct: not shown: GST-tag (glutathione S-transferase); vector and linker not restated
T6 sequence (P01031 33-111): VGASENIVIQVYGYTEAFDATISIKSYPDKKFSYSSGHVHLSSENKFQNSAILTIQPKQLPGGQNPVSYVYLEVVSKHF

[7] = biological target: T7, 161-340; test: Western blot of E. coli lysates expressing GST-fused C5 beta-chain fragments
T7 construct: Expressed in E. coli
Procedure: (§1) Anti-C5 monoclonal antibodies (MAbs) were tested for binding to C5 β-chain-derived peptides in Western blot analysis. […] The E. coli samples were harvested after incubation with 1 mM Isopropyl β-D-1-thiogalactopyranoside (IPTG) for 5 hours at 37° C., and centrifuged at 20000×g for 1 min to obtain pellets.
T7 GST fusion polypeptide: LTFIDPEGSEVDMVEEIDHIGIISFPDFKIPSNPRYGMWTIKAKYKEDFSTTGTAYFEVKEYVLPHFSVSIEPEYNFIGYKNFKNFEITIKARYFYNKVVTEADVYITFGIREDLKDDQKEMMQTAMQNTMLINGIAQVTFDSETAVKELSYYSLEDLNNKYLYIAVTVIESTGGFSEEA

[8] = biological target: T8, 321-500; test: as above
T8 construct: Expressed in E. coli
Procedure: as §1
T8 GST fusion polypeptide: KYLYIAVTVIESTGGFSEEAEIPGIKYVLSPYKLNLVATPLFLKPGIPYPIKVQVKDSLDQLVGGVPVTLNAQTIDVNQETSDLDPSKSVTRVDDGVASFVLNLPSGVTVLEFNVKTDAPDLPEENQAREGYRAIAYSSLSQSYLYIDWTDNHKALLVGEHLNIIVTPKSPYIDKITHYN

[9] = biological target: T9, 481-660; test: as above
T9 construct: Expressed in E. coli
Procedure: as §1
T9 GST fusion polypeptide: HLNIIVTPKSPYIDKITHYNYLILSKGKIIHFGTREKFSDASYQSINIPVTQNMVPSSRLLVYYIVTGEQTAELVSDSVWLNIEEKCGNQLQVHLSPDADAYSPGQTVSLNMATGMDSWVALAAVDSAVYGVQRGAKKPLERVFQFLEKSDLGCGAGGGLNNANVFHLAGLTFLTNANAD

[10] = biological target: T10, recombinant human C5 (human, UniProt P01031 20-1676); test: SPR (Biacore), 37C, association at pH 7.4, dissociation at pH 5.8
T10 construct: Also used for the C5 of normal human serum in the functional rows; also called hC5; rhC5
Procedure: (§2) The kinetic parameters of anti-C5 antibodies against recombinant human C5 were assessed at 37° C. using BIACORE® T200 instrument (GE Healthcare) at three different conditions; (1) both association and dissociation were at pH7.4, (2) both association and dissociation were at pH5.8, and (3) association was at pH7.4 but dissociation was at pH5.8. ProA/G (Pierce) was immobilized onto a CM1 sensorchip using amine coupling kit (GE Healthcare) according to the recommended settings by GE Healthcare. Antibodies and analytes for condition (1) and (3) were diluted in ACES pH7.4 buffer (20 mM ACES, 150 mM NaCl, 1.2 mM CaCl₂, 0.05% Tween 20, 0.005% NaN₃) and for condition (2) they were diluted in ACES pH5.8 buffer (20 mM ACES, 150 mM NaCl, 1.2 mM CaCl₂, 0.05% Tween 20, 0.005% NaN₃). […] The surface was regenerated using 25 mM NaOH. Kinetic parameters at condition (1) and (2) were determined by fitting the sensorgrams with a 1:1 binding model and the dissociation rate at condition (3) was determined by fitting the sensorgrams with a 1:1 dissociation for MCK model using BIACORE® T200 Evaluation software, version 2.0 (GE Healthcare). pH dependency of all antibodies were shown as ratio of dissociation rate of condition (2) and (1).

[11] = biological target: T10, recombinant human C5; test: SPR (Biacore), ratio of dissociation rates of conditions (2) and (1)
Procedure: as §2

[12] = biological target: T10, recombinant human C5; test: SPR (Biacore), 37C, association and dissociation at pH 5.8, Ab on ProA/G
Procedure: as §2

[13] = biological target: T10, recombinant human C5; test: SPR (Biacore), 37C, association and dissociation at pH 7.4, Ab on ProA/G
Procedure: as §2

Binder	Kd [1]	binding result [2]	binding result [3]	binding result [4]	binding result [5]	binding result [6]	binding result [7]	binding result [8]	binding result [9]	koff [10]	pH dependency (kd pH 5.8 / kd pH 7.4) [11]	koff [12]	kon [12]	koff [13]	kon [13]
CFA0501 (antibody, V domains shown, Chimeric, rabbit V regions; also called CFA0501-F760G4) VH: QSVEESGGRLVTPGTPLTLTCTASGFSLSSYYMNWVRQAPGKGLEWIGMIYGSGATYYASWAKGRFTISKTSSTTVDLKMTSLTTEDTATYFCARQIYSGDNNDNFWGPGTLVTVSS VL: AYDMTQTPASVEVAVGGTVTINCQASESISNWLAWYQQKPGQRPKLLIYRASTLASGVSSRFKGSGSGTQFTLTISGVECDDAATYYCQQDYSSSNVDNTFGGGTKVVVE	5.88 nM	no binding	no binding	no binding	no binding	no binding	no binding	no binding	no binding	–	–	–	–	–	–
CFA0538 (antibody, V domains shown, Chimeric, rabbit V regions; also called CFA0538-F760G4) VH: QSVEESGGRLVTPGTPLTLTCTASGFSLSSYYMNWVRQAPGKGLEWIGMIYGSGATYYASWAKGRFTISKTSSTTVDLKMTSLTTEDTATYFCARQIYSGDNNDNFWGPGTLVTVSS VL: AYDMTQTPASVEVAVGGTVTINCQASESISNWLAWYQQKPGQRPKLLIYRASTLASGVSSRFKGSGSGTQFTLTISGVECDDAATYYCQQDYSSSNVDNTFGGGTTVVVE	5.44 nM	no binding	no binding	no binding	no binding	no binding	no binding	no binding	no binding	–	–	–	–	–	–
305LO16-SG422 (antibody, human IgG4, V domains shown, Modified human IgG4 CH SG422, human CL SK1) VH: QVQLVESGGGLVQPGRSLRLSCAASGFTVHSSYYMAWVRQAPGKGLEWVGAIFTGSGAEYKAEWVKGRFTISRDNSKNTLYLQMNSLRAEDTAVYYCASDAGYDYPTHAMHYWGRGTLVTVSS VL: DIQMTQSPSSLSASVGDRVTITCRASQGISSSLAWYQQKPGKAPKLLIYGASETESGVPSRFSGSGSGTDFTLTISSLQPEDFATYYCQNTKVGSSYGNTFGGGTKVEIKR	–	–	–	–	–	–	–	–	–	0.0161 s⁻¹	21.1 fold	0.00869 s⁻¹	109000 M⁻¹ s⁻¹	0.000412 s⁻¹	1.28e+06 M⁻¹ s⁻¹
305LO20-SG115 (antibody, human IgG1, Modified human IgG1 CH SG115, human CL SK1) heavy: QVQLVESGGGLVQPGGSLRLSCAASGFTVHSSYYMAWVRQAPGKGLEWVGAIFTGSGAEYKAEWAKGRVTISKDTSKNQVVLTMTNMDPVDTATYYCASDAGYDYPTHAMHYWGQGTLVTVSSASTKGPSVFPLAPSSKSTSGGTAALGCLVKDYFPEPVTVSWNSGALTSGVHTFPAVLQSSGLYSLSSVVTVPSSSLGTQTYICNVNHKPSNTKVDKKVEPKSCDKTHTCPPCPAPELRRGPKVFLFPPKPKDTLMISRTPEVTCVVVDVSHEDPEVKFNWYVDGVEVHNAKTKPREEQYNSTYRVVSVLTVLHQDWLNGKEYKCKVSNKGLPSSIEKTISKAKGQPREPQVYTLPPSREEMTKNQVSLTCLVKGFYPSDIAVEWESNGQPENNYKTTPPVLDSDGSFFLYSKLTVDKSRWQQGNVFSCSVLHEALHAHYTRKELSLSP light: DIQMTQSPSSLSASVGDRVTITCRASQGISSSLAWYQQKPGQAPRLLIYGASETESGVPSRFSGSGSGTDFTLTISSLQPEDFATYYCQNTKVGSSYGNTFGGGTKVEIKRTVAAPSVFIFPPSDEQLKSGTASVVCLLNNFYPREAKVQWKVDNALQSGNSQESVTEQDSKDSTYSLSSTLTLSKADYEKHKVYACEVTHQGLSSPVTKSFNRGEC	–	–	–	–	–	–	–	–	–	0.0161 s⁻¹	17.5 fold	0.00818 s⁻¹	141000 M⁻¹ s⁻¹	0.000467 s⁻¹	1.44e+06 M⁻¹ s⁻¹
CFA0666 (antibody, V domains shown, Chimeric, rabbit V regions; also called CFA0666-F760G4) VH: QSVEESGGRLVTPGTPLTLTCTVSGFSLSTYAMGWVRQAPGKGLEWIGTIDTGDNSFYANWAKGRFTISKTSTTVDLKITSPTAEDTATYFCARNDGSVYNLFNLWGPGTLVTVSS VL: DVVMTQTPASVSAAVGGTVTIKCQASENIYSALSWYQQKPGLRPRLLIYYASTLASGVPSRFKGSRSGTEFTLTISDLECADAATYYCQQYYDINSVDNTFGGGTKVVVE	1.57 nM	no binding	no binding	no binding	no binding	no binding	no binding	no binding	no binding	–	–	–	–	–	–
CFA0599 (antibody, V domains shown, Chimeric, rabbit V regions; also called CFA0599-F760G4) VH: QSVEESGGRLVTPGTPLTLTCTVSGLSLSDNTMTWVRQAPGKGLEWIGIISFGGDAYYASWAKGRFPISKTSTTVDLRITSPTTEDTATYFCARVGAGNIFWYFDLWGPGTLVTVSS VL: AYDMTQTPASVEVSVGGTVTIKCQASESIYSALAWYQQKPGQPPKLLIYSASTLASGVPSRFKGSGSGTEYTLTISDLECADAATYYCQQYYSSTNVHNSFGGGTTVVVE	4.33 nM	no binding	no binding	no binding	no binding	no binding	no binding	no binding	no binding	–	–	–	–	–	–
